The term stoichiometry N denotes the number of molecules, sites or subunits per partner or assembly.

Drawing on publication PMC5567992, this text covers stoichiometry N for seven substances.

For test [1], the target named is CNTNW^N149L (Neisseria wadsworthii). Description: crystal structure.
Test [2] has as its target CNTNW^N149L, SeMet labelled (Neisseria wadsworthii). The experiment in a line: crystal structure.
Test [3] has as its target CNTNW^N149S,E332A (Neisseria wadsworthii). The experiment in a line: crystal structure.
In test [4] the target is CNTNW^N149S,F366A (Neisseria wadsworthii). Description: crystal structure.
Test [5] deals with MBP-CNTNW^T243C,C364S,A373C (inward-facing cross-linking mutant) (Neisseria wadsworthii). The experiment in a line: cross-linking.
Test [6] concerns the target MBP-CNTNW^T243C,C364S,K388C (outward-facing cross-linking mutant) (Neisseria wadsworthii). The experiment in a line: cross-linking.
For test [7], the target named is concentrative nucleoside transporter from Neisseria wadsworthii (CNTNW), wild type (Neisseria wadsworthii). Description: crystal structure.

As to CNTNW^N149L (natural protein), in test [1], the stoichiometry N was found to be 3.
In test [2], “CNTNW^N149L, SeMet labelled (natural protein)” showed a stoichiometry N of 3.
In test [3], CNTNW^N149S,E332A (natural protein) had a stoichiometry N of 3.
The substance CNTNW^N149S,F366A (natural protein) displayed a stoichiometry N in test [4] of 3.
As for “MBP-CNTNW^T243C,C364S,A373C (inward-facing cross-linking mutant) (natural protein)”, the stoichiometry N in test [5] is 3.
In test [6], “MBP-CNTNW^T243C,C364S,K388C (outward-facing cross-linking mutant) (natural protein)” registered a stoichiometry N of 3.
Regarding “concentrative nucleoside transporter from Neisseria wadsworthii (CNTNW), wild type (natural protein)”, the stoichiometry N in test [7] worked out at 3.
